Results reported in article PMC6736723.

Target: Scl1.41 on the surface of M41-type GAS cells (MGAS6183 wild type and Δscl1::scl1.41) (Streptococcus pyogenes (group A Streptococcus), M41-type strain MGAS6183)

Row | Substance | reduction in GAS (WT M41) adherence to CAF-derived matrices after 30 min pre-incubation of the cells with rTnFn1-5, against untreated WT | reduction in GAS (WT M41) adherence to CAF-derived matrices after 30 min pre-incubation of the cells with rTnFn6-8, against untreated WT
1 | recombinant tenascin-C fibronectin type III repeats 1-5 (rTnFn1-5) (domain or fragment) | 70% | 
2 | recombinant tenascin-C fibronectin type III repeats 6-8 (rTnFn6-8) (domain or fragment) |  | 40%
